Measured values reported in the supplement of paper PMC12764529.

Assay: folding stability dG unfold (combined trypsin and chymotrypsin); higher = more stable
Procedure: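 Folding stability of de novo designed mini-proteins (<80 aa, no Cys; designed by TrROS, TrMRF, ProteinMPNN and the joint model) was measured by cDNA display proteolysis with trypsin and chymotrypsin. Each protease was used at 11 concentrations in a threefold dilution series plus a no-protease condition. K50 was inferred by Bayesian fitting of sequencing counts, and dG unfold was derived against a sequence-predicted unfolded-state K50 (Tsuboyama et al. method). Sequences shown include variable-length N-terminal GS-type padding (SAGGSAGG...) inside a display construct carrying a PA tag. Rows were kept only if the AF2 dimer inter-PAE was >15, to exclude likely homo-oligomers.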

Row | Sequence | folding stability dG unfold
1 | SAGGSAGGSAGGSMPTATLVEKEKDPVEDIITYKINTPPDKTEIIKYSPENPISESDIISAGGSAGGSAGGS [r4_481_JUSTAS] | < -1 kcal/mol
2 | SAGGSAGGSAGGSMSWDDRPPVISTSVVKLPIEPGTVVKEGSKTYVAKPDGTVTVIDPRSAGGSAGGSAGGS [r4_394_JUSTAS] | < -1 kcal/mol
3 | SAGGSAGGSAGGSMTPITTTEEVDPDFKEETIKVKNFPATTTPIPEENKRTTTIPTSLFSAGGSAGGSAGGS [r4_430_JUSTAS] | < -1 kcal/mol
4 | SAGGSAGGSAGGSPELVPVSTEVVELETESVLELEESKVEVKERLEIVVKRLTKEGLGLESAGGSAGGSAGG [r7_485_JUSTAS] | < -1 kcal/mol
5 | SAGGSAGGSAGGSPPIRIRFPNNGKTIPIDGPDDLKDYLRDNGLPIDPDDLDKIDEVEWSAGGSAGGSAGGS [r4_104_TrROS] | < -1 kcal/mol
6 | SAGGSAGGSAGGSPVYTLERTLPDGRPVRIEISGDEATITLESPEGGERTEKVSRSEILESAGGSAGGSAGG [r7_653_JUSTAS] | < -1 kcal/mol
7 | SAGGSAGGSAGGSRIHIEPDNNNYRIKNRNPGGKKEEFPFDSLEDLKDLPPGFPVEIYDSAGGSAGGSAGGS [r4_447_TrROS] | < -1 kcal/mol
8 | SAGGSAGGSAGGSSKLVTITRGNSKTLLTLKPDEPVLLPGSDSSVSVNEGSAVNISGNKLSAGGSAGGSAGG [r7_853_JUSTAS] | < -1 kcal/mol
9 | SAGGSAGGSAGGSSTVLETEVTPTSEPRLLTKTLIEEFPPDNPEKPVLSVKETVLPVLLSAGGSAGGSAGGS [r4_265_JUSTAS] | < -1 kcal/mol
10 | SAGGSAGGSAGGSTKSINFKNPSNIRDALREAQDEGVKPVVIYFPDGKTRKIPPGDPITSAGGSAGGSAGGS [r4_260_TrROS] | < -1 kcal/mol
11 | SAGGSAGGSAGGSTVLRLERVPGTGLLVERLVTPSGSGYSVEVTVRPVGEEEREALPLGSAGGSAGGSAGGS [r10_291_JUSTAS] | < -1 kcal/mol
12 | SAGGSAGGSAGGTIEGLPKEQLRDIFKDHGMPPDEFPPGQPVQFNIPNKNPIKVRVTDLSAGGSAGGSAGGS [r10_623_TrROS] | < -1 kcal/mol
13 | SAGGSAGGSAGGWLKGMPFKITKITDVRRNPENGRRWLTIRMPNPNRPVTVPLDDLPPGLSAGGSAGGSAGG [r7_304_TrROS] | < -1 kcal/mol
14 | SAGGSAGGSAGGYRIKIKMPNGRPREIPLEPDDPEEVKEQAKELSSRGYDVTKVEVEPPSAGGSAGGSAGGS [r10_231_TrROS] | < -1 kcal/mol
15 | SAGGSAGGSAGITITQNPDGPVRIMWKHPNGKPVNEGDIKPDEAEKFADKNGMRPVSIEPSAGGSAGGSAGG [r11_521_TrROS] | < -1 kcal/mol
16 | SAGGSAGGSAGKIEVETNPENNYMRVKITNPGNGKKIKIPVPNGNPSDARDKAKELILEFSAGGSAGGSAGG [r17_386_TrROS] | < -1 kcal/mol
17 | SAGGSAGGSAGKRIIINMPAEQAIDWAREMLPPNQPIEIFNPDHGKTREFPIPPPSPDEKSAGGSAGGSAGG [r11_163_TrROS] | < -1 kcal/mol
18 | SAGGSAGGSAGKTISLKELMKNGNPEKALEFLKKIKEANPKPKIKLIEIDENFDAKYDINSAGGSAGGSAGG [r11_365_TrMRF] | < -1 kcal/mol
19 | SAGGSAGGSAGLEIPPELTVTSTFTVPPSGRRVLELLNPATNEPVVLDLETGEIHPSEALSAGGSAGGSAGG [r11_268_JUSTAS] | < -1 kcal/mol

Row | Sequence | folding stability dG unfold
20 | SAGGSAGGSAGLLPPGARVRLTLRAPGEPEELEFTIPASVPSVEELIERHPPVLAVEVVGSAGGSAGGSAGG [r11_157_JUSTAS] | < -1 kcal/mol
21 | SAGGSAGGSAGMEEIKERYRKELEAEGRPVKEIKAEKLPPTNTIVVTLDFENKPIVIPLPSAGGSAGGSAGG [r11_279_JUSTAS] | < -1 kcal/mol
22 | SAGGSAGGSAGMKLEELAKEAEERYREEGGDAVIDLVVEREDDKKEPFILEIGKKGLKIESAGGSAGGSAGG [r11_954_TrMRF] | < -1 kcal/mol
23 | SAGGSAGGSAGMKTFTAPSGEKLVEVTIKTKNKEISVTVPPEEGGEAVAKKYGVSKKDIASAGGSAGGSAGG [r11_1039_JUSTAS] | < -1 kcal/mol
24 | SAGGSAGGSAGMPVIEEKLVFYTGDGTPREKKVKVTTTPLPNGTTKKTYDIPKDEIKKLPSAGGSAGGSAGG [r11_816_JUSTAS] | < -1 kcal/mol
25 | SAGGSAGGSAGMTPEEAEKEAAEKIKNELIAKGYPEAKVEVKSPVKVDEVNNTFTLDIDIKKSAGGSAGGSA [r18_517_JUSTAS] | < -1 kcal/mol
26 | SAGGSAGGSAGMTVEVKKLSTPRYEKIITITTETTVKDPNSAKPLTTETVTTIERDEVSLSAGGSAGGSAGG [r17_124_JUSTAS] | < -1 kcal/mol
27 | SAGGSAGGSAGMVETTSEEEAAAVIAEARAAGVPVTLVLKNPDGTTVTTPVEVVVPPDAPSAGGSAGGSAGG [r17_462_JUSTAS] | < -1 kcal/mol
28 | SAGGSAGGSAGMVRIKITHNNGRKNTFKIPPNITEVKEVEIKLPPELQDNITKVEIEPLDSAGGSAGGSAGG [r17_528_TrROS] | < -1 kcal/mol
29 | SAGGSAGGSAGNVITFPDGYYIRVTGPGPREIPIPPENAEDFVDEISKLPGIQDIEIQPRSAGGSAGGSAGG [r11_587_TrROS] | < -1 kcal/mol
30 | SAGGSAGGSAGPRVTLTPDPNSDYVLVTTYPGDGSSTTSNVPVSELEKVRKELPADFTLASAGGSAGGSAGG [r11_569_JUSTAS] | < -1 kcal/mol
31 | SAGGSAGGSAGPWKVITHTIDIPPGADELPIRLPGNGIEAKIMSVDPGNGTITVEIYVPDSAGGSAGGSAGG [r17_198_TrROS] | < -1 kcal/mol
32 | SAGGSAGGSAGSEELAKEIEDIAQEQGFPIKDVEIERNPPNGYYSIEVRHKGNPVTIPIPSAGGSAGGSAGG [r11_279_TrROS] | < -1 kcal/mol
33 | SAGGSAGGSAGSNKVSPVITLEEDPDGTVTRTVTLKINTPEGKTLTTTSTDPLSPDSALKRSAGGSAGGSAG [r3_180_JUSTAS] | < -1 kcal/mol
34 | SAGGSAGGSAGSTEIGVYKLEGTDKVLVLAKKPNGSEVPVEFPASVTPEEAVEKAKKVVSSAGGSAGGSAGG [r17_161_TrMRF] | < -1 kcal/mol
35 | SAGGSAGGSAGSVAEALADKTITVTSPSSSTPYTATITPGADDTLRVGSPGSSGTDISVARLSAGGSAGGSA [r18_169_JUSTAS] | < -1 kcal/mol
36 | SAGGSAGGSAGTLDELKNAPPGEERTVRVDFQIYEMRPDPNGKPEMEPVSPMRMEITFKPSAGGSAGGSAGG [r11_36_TrROS] | < -1 kcal/mol
37 | SAGGSAGGSAGTVTEKTSIPDPNSDNSLTVTKTPNSITMTNPKTGDVIISNNSTVTKIKKSAGGSAGGSAGG [r17_544_JUSTAS] | < -1 kcal/mol
38 | SAGGSAGGSAGTVVVITPKNGEKFVFEAESSELPKIKEAFPELKIKDIDPGKGFIHVEVDSAGGSAGGSAGG [r17_22_TrMRF] | < -1 kcal/mol

Row | Sequence | folding stability dG unfold
39 | SAGGSAGGSAGVDFFKAPDGSEYAVVVARGKDADIPVLTRVDDGNDALAERFGLPKEKIGSAGGSAGGSAGG [r11_1039_TrMRF] | < -1 kcal/mol
40 | SAGGSAGGSAGVKEIADKFPGIKSIDVQRNKNGEQTVSIEHRSKGGPVKHTFPAEDLEPLSAGGSAGGSAGG [r17_116_TrROS] | < -1 kcal/mol
41 | SAGGSAGGSAGVPPDAPEVVVTLTLRPPGPDTTVTLTVPAAELPPEAIPPGTVVERAVSPGASAGGSAGGSA [r18_21_JUSTAS] | < -1 kcal/mol
42 | SAGGSAGGSAGWEMLRMIKENAKPGKPTTITIHPNFPMEEINKELIEDAPIDDVEYTPMPSAGGSAGGSAGG [r11_524_TrROS] | < -1 kcal/mol
43 | SAGGSAGGSAGWFYRIEIPHPNGRKRTHYVPDPEEAEDELKEEFGIPPENVKIEPIPPNDSAGGSAGGSAGG [r17_169_TrROS] | < -1 kcal/mol
44 | SAGGSAGGSAGWKISVRMPDNGKPRRVPIEIPFDADDPQYFKEIANDLANDGIREVEIYPSAGGSAGGSAGG [r11_196_TrROS] | < -1 kcal/mol
45 | SAGGSAGGSAGWRVRVSFPNGNKIEIDEIPPDDEGMTPDQLADEIQKEFPGNGIEVEPVPSAGGSAGGSAGG [r17_42_TrROS] | < -1 kcal/mol
46 | SAGGSAGGSAKIIVWGRTPEGAKEKAKEFADNIQKEMQENGMPPKNIKIPIEIFDPEAMPDSAGGSAGGSAG [r3_249_TrROS] | < -1 kcal/mol
47 | SAGGSAGGSAKTYIIPIKDLGPDENGKYHIDIAVEKVKKLFPDENITSVDIDGFEKIGELAESAGGSAGGSA [r18_72_TrMRF] | < -1 kcal/mol
48 | SAGGSAGGSAMDPDDQLPTIEEIAKKFGMDATIEPRRNPNGMPYRTATVQNNGGPVGEISIPSAGGSAGGSA [r18_369_TrROS] | < -1 kcal/mol
49 | SAGGSAGGSAMSPSLPGKYEVLLTDPRPGVGPPVTRRVTLTPEEIEATIPPGAGREVVELPSAGGSAGGSAG [r3_223_JUSTAS] | < -1 kcal/mol
50 | SAGGSAGGSAMTLLSEKEVPGTDLTIKYVEEKLPGERVIRTLTIKKNSVVEEKEFPVGELPSAGGSAGGSAG [r3_48_JUSTAS] | < -1 kcal/mol
51 | SAGGSAGGSANFDINIEPHPDKDYLVITVTIPPGMPPGQKVRTWVIDPPDGKILEPEPIKIPDSAGGSAGGS [r12_564_TrROS] | < -1 kcal/mol
52 | SAGGSAGGSAPFTAKEAADYAAWKIQKRLKKEGNPDKEITIKAPIEWDPEDGIFRAKIQIEYSAGGSAGGSA [r18_517_TrROS] | < -1 kcal/mol
53 | SAGGSAGGSAPKPIERVEVGSFTLPPGRRVFPVRARIRGTGEVVVVATDGAPVEEVLKAVEASAGGSAGGSA [r18_345_TrMRF] | < -1 kcal/mol
54 | SAGGSAGGSAREITIMVPPDDPNLTIEEAKDLLQPWGIKKVEIEPHPDGYYIVEIRVPPGLSAGGSAGGSAG [r3_335_TrROS] | < -1 kcal/mol
55 | SAGGSAGGSASPKQVPITIEIQTPNKPRKITFPIPEGQEGGPEEIMDRLADDGNYKIDRITSAGGSAGGSAG [r3_31_TrROS] | < -1 kcal/mol
56 | SAGGSAGGSASSTTVPLEIPAPEGAVVELTFPDGTTVKATVTPRPDGSYTLKVGNGEIVAPRSAGGSAGGSA [r18_372_JUSTAS] | < -1 kcal/mol
57 | SAGGSAGGSASSTVLETEEEPVGKVTTEKVLVPRPDGTPVLRTKLVYRPKDGSLTSETTSLSAGGSAGGSAG [r3_94_JUSTAS] | < -1 kcal/mol
